B1: A2282 protein, wild type (A2282V1, MELK), HA-tagged, immunoprecipitated from HEK 293 cells (protein)
chain: MKDYDELLKYYELHETIGTGGFAKVKLACHILTGEMVAIKIMDKNTLGSDLPRIKTEIEALKNLRHQHICQLYHVLETANKIFMVLEYCPGGELFDYIISQDRLSEEETRVVFRQIVSAVAYVHSQGYAHRDLKPENLLFDEYHKLKLIDFGLCAKPKGNKDYHLQTCCGSLAYAAPELIQGKSYLGSEADVWSMGILLYVLMCGFLPFDDDNVMALYKKIMRGKYDVPKWLSPSSILLLQQMLQVDPKKRISMKNLLNHPWIMQDYNYPVEWQSKNPFIHLDDDCVTELSVHHRNNRQTMEDLISLWQYDHLTATYLLLLAKKARGKPVRLRLSSFSCGQASATPFTDIKSNNWSLEDVTASDKNYVAGLIDYDWCEDDLSTGAATPRTSQFTKYWTESNGVESKSLTPALCRTPANKLKNKENVYTPKSAVKNEEYFMFPEPKTPVNKNQHKREILTTPNRYTTPSKARNQCLKETPIKIPVNSTGTDKLMTGVISPERRCRSVELDLNQAHMEETPKRKGAKVFGSLERGLDKVITVLTRSKRKGSARDGPRRLKLHYNVTTTRLVNPDQLLNEIMSILPKKHVDFVQKGYTLKCQTQSDFGKVTMQFELEVCQLQKPDVVGIRRQRLKGDAWVYKRLVEDILSSCKV
B2: A2282 protein T478A mutant, HA-tagged (protein)
chain: B1 chain with T478A
B3: A2282 protein D150A mutant, HA-tagged (protein)
chain: B1 chain with D150A
B4: A2282 protein T167A mutant, HA-tagged (protein)
chain: B1 chain with T167A

Residue numbers refer to the chain shown, from its start. Numbers in names are those of the source.

In the data set the target is Histone H1 (UPSTATE, Lake Placid, N.Y.).
As to B1, the “kinase activity (immune complex kinase assay, [gamma-32P]-ATP)” value (“kinase activity” below) was “wild type and T478A proteins possessing intact kinase domain was observed phosphorylated Histone H1 in vitro”. In the case of B2, the “kinase activity” value was “wild type and T478A proteins possessing intact kinase domain was observed phosphorylated Histone H1 in vitro”.

Turning to B3, the “kinase activity” value is reported as “completely abolished in D150A protein”.

As to B4, the “kinase activity” value is given as “This activity was severely compromised in T167A mutant”.
